Measurements from patent publication US20140011209.

Biological target: PrP (prion protein) (UniProt P04156)
Assay: EMSA
Settings: PrP form and source not stated

Sequence: GGGAGACAAGACUAGACGCUCAACUACGAACUCAUGACACAAGGAUGCAAUCUCAUCCCG [B-end (PrPSc binding region)]
- Kd: 44.3 nM
